One block for each binder: values may come before it.
Experiments:
[1] = molecular target: T1, human Nectin-4 with N-terminal Flag epitope tag, on transfected MDA-MB231 cells (human, UniProt Q96NY8 32-510); assay: flow cytometry on MDA-MB231 cells transfected with N-terminally Flag-tagged Nectin-4
T1 construct: whole, on cells; also called PVRL4; PRR4
T1 sequence (looked up): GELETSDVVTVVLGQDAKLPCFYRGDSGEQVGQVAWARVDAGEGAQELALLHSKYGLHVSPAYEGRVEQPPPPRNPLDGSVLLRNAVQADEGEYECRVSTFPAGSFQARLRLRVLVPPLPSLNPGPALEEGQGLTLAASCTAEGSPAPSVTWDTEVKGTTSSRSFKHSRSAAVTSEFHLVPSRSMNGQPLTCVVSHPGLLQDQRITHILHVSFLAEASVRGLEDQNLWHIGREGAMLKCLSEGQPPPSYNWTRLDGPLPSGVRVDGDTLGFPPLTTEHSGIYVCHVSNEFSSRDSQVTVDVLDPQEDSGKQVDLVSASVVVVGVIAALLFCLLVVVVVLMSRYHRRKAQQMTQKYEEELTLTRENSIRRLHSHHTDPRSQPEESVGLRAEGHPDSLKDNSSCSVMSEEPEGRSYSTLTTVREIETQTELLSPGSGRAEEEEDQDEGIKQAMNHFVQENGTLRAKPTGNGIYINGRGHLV

[2] = molecular target: T2, human Nectin-4 on CHO cells transfected with human Nectin-4 cDNA (human, UniProt Q96NY8 32-510); assay: flow cytometry competition on CHO cells with human Nectin-4; competitor Nec1-VCC
T2 construct: whole, on cells
T2 sequence (looked up): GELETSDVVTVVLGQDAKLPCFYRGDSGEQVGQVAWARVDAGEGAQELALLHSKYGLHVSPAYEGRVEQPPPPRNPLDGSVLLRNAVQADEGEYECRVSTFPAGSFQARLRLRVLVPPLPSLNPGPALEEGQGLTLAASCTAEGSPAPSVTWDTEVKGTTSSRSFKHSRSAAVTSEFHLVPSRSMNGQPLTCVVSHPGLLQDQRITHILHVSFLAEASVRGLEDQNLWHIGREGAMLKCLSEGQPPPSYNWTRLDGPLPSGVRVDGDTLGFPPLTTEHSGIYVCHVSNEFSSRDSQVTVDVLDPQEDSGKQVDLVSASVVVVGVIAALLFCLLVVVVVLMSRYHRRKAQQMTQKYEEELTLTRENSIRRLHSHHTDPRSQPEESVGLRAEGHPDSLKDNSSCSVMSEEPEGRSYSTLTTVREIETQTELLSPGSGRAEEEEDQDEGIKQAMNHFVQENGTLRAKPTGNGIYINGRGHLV

[3] = molecular target: T3, Nectin-4 expressed by normal differentiated human keratinocytes (NHEK) (human, UniProt Q96NY8 32-510); assay: flow cytometry on normal differentiated human keratinocytes (NHEK), 8 pM-33 nM; reference of the comparison
T3 construct: whole, on cells; also called Nectin-4 on NHEK; keratinocyte Nectin-4
T3 sequence (looked up): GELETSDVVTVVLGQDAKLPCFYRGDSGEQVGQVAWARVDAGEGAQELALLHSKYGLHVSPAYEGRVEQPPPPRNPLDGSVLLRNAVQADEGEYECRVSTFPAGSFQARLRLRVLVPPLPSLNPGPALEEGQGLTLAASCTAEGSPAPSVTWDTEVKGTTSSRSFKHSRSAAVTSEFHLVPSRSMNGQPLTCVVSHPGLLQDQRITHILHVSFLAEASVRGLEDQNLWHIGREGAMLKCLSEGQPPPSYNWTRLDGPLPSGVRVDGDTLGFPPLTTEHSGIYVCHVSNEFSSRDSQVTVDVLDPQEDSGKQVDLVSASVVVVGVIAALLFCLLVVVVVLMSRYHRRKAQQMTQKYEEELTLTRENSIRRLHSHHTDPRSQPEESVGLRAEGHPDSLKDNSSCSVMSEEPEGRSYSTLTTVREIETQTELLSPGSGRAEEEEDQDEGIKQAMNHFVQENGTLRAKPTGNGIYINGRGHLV

[4] = molecular target: T4, Nectin-1 extracellular domain Fc fusion recombinant protein (Nec1-VCC) (UniProt Q15223 31-355, limits assumed); assay: ELISA, Nec1-VCC coated on plate, peroxidase-conjugated Ch-15A7.5
T4 construct: extracellular domain; also called Nectin-1-VCC-Fc; not shown: Fc part
T4 sequence (looked up): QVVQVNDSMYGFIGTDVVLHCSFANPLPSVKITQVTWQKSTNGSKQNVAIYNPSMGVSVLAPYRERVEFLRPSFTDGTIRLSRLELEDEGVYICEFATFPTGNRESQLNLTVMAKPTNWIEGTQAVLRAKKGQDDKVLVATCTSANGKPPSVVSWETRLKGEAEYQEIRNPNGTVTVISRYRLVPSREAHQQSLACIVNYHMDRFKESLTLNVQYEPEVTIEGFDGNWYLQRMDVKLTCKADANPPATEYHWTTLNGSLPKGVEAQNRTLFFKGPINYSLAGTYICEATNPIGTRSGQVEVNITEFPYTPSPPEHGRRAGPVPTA

[5] = molecular target: T5, Nectin-4 extracellular domain Fc fusion recombinant protein (Nec4-VCC) (human, UniProt Q96NY8 32-349); assay: statement in the legend of the competition ELISA on coated Nec4-VCC
T5 construct: extracellular domain; also called Nectin-4-VCC-Fc; not shown: Fc part
T5 sequence (looked up): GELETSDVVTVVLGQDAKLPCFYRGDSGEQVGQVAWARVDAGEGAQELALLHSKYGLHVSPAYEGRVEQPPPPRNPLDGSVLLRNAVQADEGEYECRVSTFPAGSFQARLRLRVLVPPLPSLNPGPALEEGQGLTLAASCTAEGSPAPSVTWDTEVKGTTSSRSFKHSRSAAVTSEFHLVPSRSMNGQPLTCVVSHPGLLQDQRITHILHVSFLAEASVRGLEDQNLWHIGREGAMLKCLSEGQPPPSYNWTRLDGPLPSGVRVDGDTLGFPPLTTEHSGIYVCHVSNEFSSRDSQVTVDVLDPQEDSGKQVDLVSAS

binding result [1]: binds
binding result [2]: binds
binding result [3]: binds
B1: Ch-5A12.2 (antibody, V domains shown)
VH: QIQLQQSGAELVKPGASVTLSCKTSGFTFNSMYISWLKQKPGQSLEWIAWIYAGTGGTRFNQKFTGKVQLTVDTSSSTAYMQFSSLTTDDSAIYYCAIRSGFVPMDYWGQGTSVTVSS
VL: SIVMTQTPKFLLVSAGDRVTITCKASQSVSNDVAWYQQKPGQSPKLLIYYASNRYTGVPDRFTGSGYGTDFTFTISTVQAEDLAVYFCQQDYSSPWTFGGGTKLEIK
notes: also called 5A12.2 mAb; chimeric 5A12.2

binding result [4]: no binding (tested: 10nM)
B2: Ch-15A7.5 (antibody, V domains shown)
VH: EVKLVESGGGLVQPGGSRKLSCAASGFTFSNYGMAWVRQAPGKGPEWVAFISNLAYGINYADTVTGRFTISRENAKNTLYLEMRSLRSEDTAMYYCARGARATGWFAYWGQGTLVTVSA
VL: DIVMTQSQKFMSTSIGDRVSVTCKASQNVDTHVAWYQEKPGQSPKALIYSASYRYSGVPDRFTGSGSGTDFTLTISNVQSEDLADYFCQQYNSYPLTFGGGTKLEIK
notes: also called Ch-15A7.5 mAb; Ch-15A7 mAb

binding result [5]: binds
B3: HA22 (enfortumab) (antibody, V domains shown)
VH: EVQLVESGGGLVQPGGSLRLSCAASGFTFSSYNMNWVRQAPGKGLEWVSYISSSSSTIYYADSVKGRFTISRDNAKNSLSLQMNSLRDEDTAVYYCARAYYYGMDVWGQGTTVTVSS
VL: DIQMTQSPSSVSASVGDRVTITCRASQGISGWLAWYQQKPGKAPKFLIYAASTLQSGVPSRFSGSGSGTDFTLTISSLQPEDFATYYCQQANSFPPTFGGGTKVEIK
notes: also called 恩弗妥单抗; HA22 mAb
